For assay [1], the target named is T1, cSNK:BSA conjugate (bovine, head-to-tail cyclized; conjugated to BSA carrier).
T1 construct: also called BSA-cSNK
Description: BLI (Octet), KD1.

In assay [2] the target is T1, cSNK:BSA conjugate. Description: BLI (Octet), KD2. A general note: Biolayer interferometry detects binding as a change in optical thickness at a sensor tip.

The term Kd denotes the free concentration of one partner at which half of the binding sites on the other are occupied at equilibrium, for simple one-to-one binding. Lower therefore signals higher affinity.

T1 sequence (P02769 25-607 limits assumed): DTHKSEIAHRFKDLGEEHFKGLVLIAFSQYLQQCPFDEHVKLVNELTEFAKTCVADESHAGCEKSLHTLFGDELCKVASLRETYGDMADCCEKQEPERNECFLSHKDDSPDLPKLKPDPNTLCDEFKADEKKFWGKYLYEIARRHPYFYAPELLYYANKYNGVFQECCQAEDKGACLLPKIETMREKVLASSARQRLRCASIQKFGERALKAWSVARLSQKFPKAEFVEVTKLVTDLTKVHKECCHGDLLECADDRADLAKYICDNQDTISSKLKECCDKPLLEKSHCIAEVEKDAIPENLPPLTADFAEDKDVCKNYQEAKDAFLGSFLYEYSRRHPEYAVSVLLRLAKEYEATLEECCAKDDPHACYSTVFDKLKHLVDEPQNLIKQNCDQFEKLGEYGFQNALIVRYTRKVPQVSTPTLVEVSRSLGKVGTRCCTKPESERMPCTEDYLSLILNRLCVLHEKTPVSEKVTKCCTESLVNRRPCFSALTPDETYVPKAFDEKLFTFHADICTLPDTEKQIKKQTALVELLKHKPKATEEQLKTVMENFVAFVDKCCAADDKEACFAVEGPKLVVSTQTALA

B1: 5E3HCDR1-S184D (antibody, V domains shown)
VH: QVQLQQSGPEVKKPGASVKISCKASGYIFTDYYIQWVIHAPGQGLEWIGWIYPGNVNTKYNEKFKGKATLTADKSSSTAYMELSSLTSEDTAVYFCARMDYEAHYWGQGTTVTVSS
VL: DIQMTQSPSSLSASVGDRVTITCRASQEISGYLTWLQQKPEGAIKRLIYAASTLDSGVPKRFSGSRSGSDYSLTISSLQPEDFATYNCLQYANYPRTFGGGTKLEIK
notes: hu5E3 IgG1 vector mutant; also called 5E3-S184D-AFF
As for B1, the values for the Kd with cSNK:BSA conjugate [1] and in the assay with cSNK:BSA conjugate [2] were 0.214 nM and 3.41 nM, respectively.

B2: 5E3KCDR3-L89I + 5E3HCDR3-E209Q (antibody, IgG1, V domains shown)
VH: QVQLQQSGPEVKKPGASVKISCKASGYIFTSYYIQWVIHAPGQGLEWIGWIYPGNVNTKYNEKFKGKATLTADKSSSTAYMELSSLTSEDTAVYFCARMDYQAHYWGQGTTVTVSS
VL: DIQMTQSPSSLSASVGDRVTITCRASQEISGYLTWLQQKPEGAIKRLIYAASTLDSGVPKRFSGSRSGSDYSLTISSLQPEDFATYNCIQYANYPRTFGGGTKLEIK
notes: double combination in hu5E3 IgG1
B2 gave a dissociation constant (Kd) in the assay with cSNK:BSA conjugate [1] of 19.8 nM.

B3: 5E3KCDR2-A74D (antibody, IgG1, V domains shown)
VH: QVQLQQSGPEVKKPGASVKISCKASGYIFTSYYIQWVIHAPGQGLEWIGWIYPGNVNTKYNEKFKGKATLTADKSSSTAYMELSSLTSEDTAVYFCARMDYEAHYWGQGTTVTVSS
VL: DIQMTQSPSSLSASVGDRVTITCRASQEISGYLTWLQQKPEGAIKRLIYDASTLDSGVPKRFSGSRSGSDYSLTISSLQPEDFATYNCLQYANYPRTFGGGTKLEIK
notes: hu5E3 IgG1 vector mutant; also called 5E3-A74D-AFF
Take B3: the Kd in the assay with cSNK:BSA conjugate [1] amounted to 0.302 nM; with cSNK:BSA conjugate [2], 3.06 nM.

B4: 5E3KCDR2-S80Y (antibody, IgG1, V domains shown)
VH: QVQLQQSGPEVKKPGASVKISCKASGYIFTSYYIQWVIHAPGQGLEWIGWIYPGNVNTKYNEKFKGKATLTADKSSSTAYMELSSLTSEDTAVYFCARMDYEAHYWGQGTTVTVSS
VL: DIQMTQSPSSLSASVGDRVTITCRASQEISGYLTWLQQKPEGAIKRLIYAASTLDYGVPKRFSGSRSGSDYSLTISSLQPEDFATYNCLQYANYPRTFGGGTKLEIK
notes: hu5E3 IgG1 vector mutant
In the case of B4, the equilibrium dissociation constant (Kd) in the assay with cSNK:BSA conjugate [1] is 0.0138 nM; in the assay with cSNK:BSA conjugate [2], 3.05 nM.

B5: 5E3HCDR3-Y212F (antibody, IgG1, V domains shown)
VH: QVQLQQSGPEVKKPGASVKISCKASGYIFTSYYIQWVIHAPGQGLEWIGWIYPGNVNTKYNEKFKGKATLTADKSSSTAYMELSSLTSEDTAVYFCARMDYEAHFWGQGTTVTVSS
VL: DIQMTQSPSSLSASVGDRVTITCRASQEISGYLTWLQQKPEGAIKRLIYAASTLDSGVPKRFSGSRSGSDYSLTISSLQPEDFATYNCLQYANYPRTFGGGTKLEIK
notes: hu5E3 IgG1 vector mutant
In the case of B5, the Kd with cSNK:BSA conjugate [1] amounted to 1.58 nM; in the assay with cSNK:BSA conjugate [2], 8.25 nM.

B6: 5E3HCDR3-Y208F (antibody, IgG1, V domains shown)
VH: QVQLQQSGPEVKKPGASVKISCKASGYIFTSYYIQWVIHAPGQGLEWIGWIYPGNVNTKYNEKFKGKATLTADKSSSTAYMELSSLTSEDTAVYFCARMDFEAHYWGQGTTVTVSS
VL: DIQMTQSPSSLSASVGDRVTITCRASQEISGYLTWLQQKPEGAIKRLIYAASTLDSGVPKRFSGSRSGSDYSLTISSLQPEDFATYNCLQYANYPRTFGGGTKLEIK
notes: hu5E3 IgG1 vector mutant
For the molecule B6, the Kd came out at 21.5 nM with cSNK:BSA conjugate [1] and 0.001 nM with cSNK:BSA conjugate [2].

B7: 5E3KCDR2-G81D (antibody, IgG1, V domains shown)
VH: QVQLQQSGPEVKKPGASVKISCKASGYIFTSYYIQWVIHAPGQGLEWIGWIYPGNVNTKYNEKFKGKATLTADKSSSTAYMELSSLTSEDTAVYFCARMDYEAHYWGQGTTVTVSS
VL: DIQMTQSPSSLSASVGDRVTITCRASQEISGYLTWLQQKPEGAIKRLIYAASTLDSDVPKRFSGSRSGSDYSLTISSLQPEDFATYNCLQYANYPRTFGGGTKLEIK
notes: hu5E3 IgG1 vector mutant; also called 5E3-G81D-AFF
As to B7, the figures for the dissociation constant Kd in the assay with cSNK:BSA conjugate [1] and with cSNK:BSA conjugate [2] were 0.0192 nM and 2.33 nM, respectively.

B8: 5E3HCDR2-K212D (antibody, IgG1, V domains shown)
VH: QVQLQQSGPEVKKPGASVKISCKASGYIFTSYYIQWVIHAPGQGLEWIGWIYPGNVNTDYNEKFKGKATLTADKSSSTAYMELSSLTSEDTAVYFCARMDYEAHYWGQGTTVTVSS
VL: DIQMTQSPSSLSASVGDRVTITCRASQEISGYLTWLQQKPEGAIKRLIYAASTLDSGVPKRFSGSRSGSDYSLTISSLQPEDFATYNCLQYANYPRTFGGGTKLEIK
notes: hu5E3 IgG1 vector mutant; also called 5E3-K212D-AFF
On to B8, for which the values for the Kd with cSNK:BSA conjugate [1] and in the assay with cSNK:BSA conjugate [2] were 0.0171 nM and 2.36 nM, respectively.

B9: 5E3HCDR3-E209D (antibody, IgG1, V domains shown)
VH: QVQLQQSGPEVKKPGASVKISCKASGYIFTSYYIQWVIHAPGQGLEWIGWIYPGNVNTKYNEKFKGKATLTADKSSSTAYMELSSLTSEDTAVYFCARMDYDAHYWGQGTTVTVSS
VL: DIQMTQSPSSLSASVGDRVTITCRASQEISGYLTWLQQKPEGAIKRLIYAASTLDSGVPKRFSGSRSGSDYSLTISSLQPEDFATYNCLQYANYPRTFGGGTKLEIK
notes: hu5E3 IgG1 vector mutant; same change as 5E3HCDR3-E255D
Turning to B9, the results for the Kd with cSNK:BSA conjugate [1] and with cSNK:BSA conjugate [2] were 3.21 nM and 9.13 nM, respectively.

B10: 5E3HCDR3-E209Q (antibody, IgG1, V domains shown)
VH: QVQLQQSGPEVKKPGASVKISCKASGYIFTSYYIQWVIHAPGQGLEWIGWIYPGNVNTKYNEKFKGKATLTADKSSSTAYMELSSLTSEDTAVYFCARMDYQAHYWGQGTTVTVSS
VL: DIQMTQSPSSLSASVGDRVTITCRASQEISGYLTWLQQKPEGAIKRLIYAASTLDSGVPKRFSGSRSGSDYSLTISSLQPEDFATYNCLQYANYPRTFGGGTKLEIK
notes: hu5E3 IgG1 vector mutant
As to B10, the Kd in the assay with cSNK:BSA conjugate [1] turned out to be 1.86 nM; in the assay with cSNK:BSA conjugate [2], 6.05 nM.

B11: 5E3HCDR2-V209Y (antibody, IgG1, V domains shown)
VH: QVQLQQSGPEVKKPGASVKISCKASGYIFTSYYIQWVIHAPGQGLEWIGWIYPGNYNTKYNEKFKGKATLTADKSSSTAYMELSSLTSEDTAVYFCARMDYEAHYWGQGTTVTVSS
VL: DIQMTQSPSSLSASVGDRVTITCRASQEISGYLTWLQQKPEGAIKRLIYAASTLDSGVPKRFSGSRSGSDYSLTISSLQPEDFATYNCLQYANYPRTFGGGTKLEIK
notes: hu5E3 IgG1 vector mutant
For the molecule B11, the dissociation constant Kd is 0.0107 nM in the assay with cSNK:BSA conjugate [1] and 2.4 nM in the assay with cSNK:BSA conjugate [2].

B12: 5E3HCDR3-E255D (antibody, IgG1, V domains shown)
VH: QVQLQQSGPEVKKPGASVKISCKASGYIFTSYYIQWVIHAPGQGLEWIGWIYPGNVNTKYNEKFKGKATLTADKSSSTAYMELSSLTSEDTAVYFCARMDYDAHYWGQGTTVTVSS
VL: DIQMTQSPSSLSASVGDRVTITCRASQEISGYLTWLQQKPEGAIKRLIYAASTLDSGVPKRFSGSRSGSDYSLTISSLQPEDFATYNCLQYANYPRTFGGGTKLEIK
notes: hu5E3 IgG1 vector mutant; same change as 5E3HCDR3-E209D; also called 5E3-E255D-AFF
As to B12, the results for the equilibrium dissociation constant (Kd) in the assay with cSNK:BSA conjugate [1] and with cSNK:BSA conjugate [2] were 0.0333 nM and 2.57 nM, respectively.

B13: 5E3KCDR2-S80D (antibody, IgG1, V domains shown)
VH: QVQLQQSGPEVKKPGASVKISCKASGYIFTSYYIQWVIHAPGQGLEWIGWIYPGNVNTKYNEKFKGKATLTADKSSSTAYMELSSLTSEDTAVYFCARMDYEAHYWGQGTTVTVSS
VL: DIQMTQSPSSLSASVGDRVTITCRASQEISGYLTWLQQKPEGAIKRLIYAASTLDDGVPKRFSGSRSGSDYSLTISSLQPEDFATYNCLQYANYPRTFGGGTKLEIK
notes: hu5E3 IgG1 vector mutant; also called 5E3-S80D-AFF
For the molecule B13, the results for the Kd with cSNK:BSA conjugate [1] and with cSNK:BSA conjugate [2] were 0.0269 nM and 3.95 nM, respectively.

B14: 5E3HCDR3-A210G (antibody, IgG1, V domains shown)
VH: QVQLQQSGPEVKKPGASVKISCKASGYIFTSYYIQWVIHAPGQGLEWIGWIYPGNVNTKYNEKFKGKATLTADKSSSTAYMELSSLTSEDTAVYFCARMDYEGHYWGQGTTVTVSS
VL: DIQMTQSPSSLSASVGDRVTITCRASQEISGYLTWLQQKPEGAIKRLIYAASTLDSGVPKRFSGSRSGSDYSLTISSLQPEDFATYNCLQYANYPRTFGGGTKLEIK
notes: hu5E3 IgG1 vector mutant
As for B14, the equilibrium dissociation constant (Kd) was 1.73 nM with cSNK:BSA conjugate [1] and 9.97 nM in the assay with cSNK:BSA conjugate [2].
